Assay results: patent US20210206865A1 (Regeneron, published 2021)

T1: human BCMA on the surface of cell lines (NCI-H929, MM.1S, OPM-2, RPMI-8226, Daudi, Raji, MOLP-8, U266) (human, UniProt Q02223 1-184)
T1 sequence: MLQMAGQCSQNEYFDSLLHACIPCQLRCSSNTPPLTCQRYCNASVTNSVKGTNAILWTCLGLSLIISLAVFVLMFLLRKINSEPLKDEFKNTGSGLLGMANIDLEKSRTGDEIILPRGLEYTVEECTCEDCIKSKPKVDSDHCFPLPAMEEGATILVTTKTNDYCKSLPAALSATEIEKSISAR

T2: human BCMA-MMH (extracellular domain of human BCMA with C-terminal myc-myc-hexahistidine tag) (human)
T2 construct: Monomeric antigen; also called hBCMA.mmh; hBCMA.mmH
T2 chain: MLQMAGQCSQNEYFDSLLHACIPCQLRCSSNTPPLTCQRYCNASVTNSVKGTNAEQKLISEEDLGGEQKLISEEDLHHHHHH

T3: human BCMA-MFC (extracellular domain of human BCMA with C-terminal mFc tag) (human)
T3 construct: also called hBCMA.mFc
T3 chain: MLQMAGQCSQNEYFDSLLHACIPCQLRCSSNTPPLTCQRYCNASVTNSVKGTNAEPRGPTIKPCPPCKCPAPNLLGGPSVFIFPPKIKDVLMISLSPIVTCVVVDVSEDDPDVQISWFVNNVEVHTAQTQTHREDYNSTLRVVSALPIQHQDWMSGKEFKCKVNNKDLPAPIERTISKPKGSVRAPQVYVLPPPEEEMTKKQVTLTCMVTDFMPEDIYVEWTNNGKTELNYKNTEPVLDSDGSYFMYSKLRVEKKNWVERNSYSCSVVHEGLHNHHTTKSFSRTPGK

T4: mouse BCMA-MFC (BCMA with C-terminal mFc tag) (mouse)
T4 construct: Tested at a single concentration of 30 nM; also called mBCMA.mFc
T4 chain: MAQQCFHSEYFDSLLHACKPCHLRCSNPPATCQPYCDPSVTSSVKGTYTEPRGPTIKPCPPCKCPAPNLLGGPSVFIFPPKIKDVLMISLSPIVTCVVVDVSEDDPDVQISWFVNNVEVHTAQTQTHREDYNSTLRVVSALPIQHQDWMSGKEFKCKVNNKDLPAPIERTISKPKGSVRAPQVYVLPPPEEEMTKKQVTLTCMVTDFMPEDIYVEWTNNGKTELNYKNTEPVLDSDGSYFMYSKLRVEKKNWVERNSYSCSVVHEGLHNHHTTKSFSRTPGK

B1: mAb16747 (REGN4515) (antibody, V domains shown)
VH: QVQLVESGGGLVKPGGSLRLSCAASGFTFSDYYISWIRQAPGKGLEWVSYISSSGSSIKYADSVKGRFTISRDNAKNSLYLQMNSLRAEDTAVYYCAREGGNYGMDVWGQGTTVTVSS
VL: DIQMTQSPSSVSASVGDRVTITCRASQGINNWLVWYQQKPGKAPKLLIYAATSLQSGVPSRFSGSGSGTDFTLTISSLQPEDFATYYCQQANSFPPTFGQGTKLEIK
notes: Anti-BCMA monoclonal antibody; Captured by anti-human Fc in SPR
B2: mAb16732 (REGN4514) (antibody, V domains shown)
VH: EVQLVESGGGLVQPGRSLRLSCAASGFTFDDYAMHWVRQAPGKGLEWVSGISWNSGNMGYADSVKGRFTISRDNAKNSLFLQMHSLRAEDTAFYYCAKVRLTAFDFWGQGTLVTVSS
VL: DIQMTQSPSSLSASVGDRVTITCRTSQSIGNYLNWFQQKPGKAPKLLIYTASSLQNGVPSRFTGSGSGTDFTLTISSLQPEDFVIYYCQQSFSTPYTFGQGTKLEIK
notes: as for B1
B3: mAb21581, parental bivalent anti-BCMA antibody (antibody, V domains shown)
VH: EVQLVESGGGLVQPGGSLRLSCAASGFTFSNFWMTWVRQAPGKGLEWVANMNQDGSEKYYVDSVKGRFTISRDNAKSSLYLQMNSLRAEDTAVYYCARDREYCISTSCYDDFDYWGQGTLVTVSS
VL: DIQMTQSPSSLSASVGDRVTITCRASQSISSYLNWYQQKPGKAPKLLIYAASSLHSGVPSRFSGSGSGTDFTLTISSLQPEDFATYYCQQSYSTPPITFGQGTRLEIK
B4: mAb16711 (antibody, V domains shown)
VH: QVQLVESGGGVVQPGRSLRLSCAASGFTFSTYGIHWVRQAPGKGLEWVAVILHDGSSNYYAESVKGRFIISRDNSKNTLYLQMNSLRAEDTALYYCTKRYSEAAGPNWFDPWGQGTLVTVSS
VL: DIQMTQSPSSVSASVGDRVTITCRASRGISSWLAWYQQKPGKAPKLLIHAASSLQSGVPSRFSGSGSGTDFTLTISSLQPEDFATYYCQQAISFPFTFGPGTKVDIK
notes: as for B1
B5: mAb16716 (antibody, V domains shown)
VH: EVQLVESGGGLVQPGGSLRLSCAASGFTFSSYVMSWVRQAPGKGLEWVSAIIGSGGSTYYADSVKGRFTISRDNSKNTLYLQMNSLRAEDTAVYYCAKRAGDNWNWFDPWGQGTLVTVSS
VL: DIQMTQSPSSVSASLGDRVTITCRASQGISSWLAWYQRKPGKAPKLLIYAASSLQSGVPSRFSGSGSGADFTLTISSLQPEDFATYYCQQAKSVPFTFGPGTKVDIK
notes: as for B1

Columns and labels:
[1] = target: T1, human BCMA on the surface of cell lines …; test: cell-based or functional assay
[2] = target: T1, human BCMA on the surface of cell lines …; test: cell-based or functional assay; remark: listed apart in the source
[3] = target: T1, human BCMA on the surface of cell lines …; test: cell-based or functional assay; remark: listed apart in the source
[4] = target: T2, human BCMA-MMH (extracellular domain of …); test: SPR Biacore, 25 C, mAb captured via anti-hFc
Method: (§1) The CM5 Biacore sensor surface was derivatized by amine coupling with a monoclonal mouse anti-human Fc antibody (GE, #BR-1008-39) to capture purified anti-BCMA mAbs and anti-BCMA×anti-CD3 bispecific mAbs. All Biacore binding studies were performed in a buffer composed of 0.01M HEPES pH 7.4, 0.15M NaCl, 3 mM EDTA, 0.05% v/v Surfactant P20 (HBS-ET running buffer). […] Antigen samples were then injected over the anti-BCMA and anti-BCMA×anti-CD3 bispecific mAbs captured surfaces at a flow rate of 30 μL/minute. Antibody-reagent association was monitored for 5 minutes while dissociation in HBS-ET running buffer was monitored for 10 minutes. All of the binding kinetics experiments were performed at 25° C. Kinetic association (kₐ) and dissociation (kd) rate constants were determined by fitting the real-time sensorgrams to a 1:1 binding model using Scrubber 2.0c curve fitting software. Binding dissociation equilibrium constants (KD) and dissociative half-lives (t1/2) were calculated from the kinetic rate constants as: […]

[5] = target: T3, human BCMA-MFC (extracellular domain of …); test: SPR Biacore, 25 C, mAb captured via anti-hFc
Method: as §1

[6] = target: T5, monkey BCMA-MFC (monkey BCMA with C-terminal mFc tag) (monkey); test: SPR Biacore, 25 C, mAb captured via anti-hFc
T5 construct: also called mfBCMA.mFc
Method: as §1

[7] = target: T4, mouse BCMA-MFC (BCMA with C-terminal …); test: SPR Biacore, 25 C, mAb captured via anti-hFc
Method: as §1

[8] = target: T1, human BCMA on the surface of cell lines …; test: cell-based or functional assay; remark: listed apart in the source
[9] = target: T6, monkey BCMA-MMH (monkey BCMA with C-terminal myc-myc-hexahistidine tag) (monkey); test: SPR Biacore, 25 C, mAb captured via anti-hFc
T6 construct: Monomeric antigen; also called mfBCMA.mmh
Method: as §1

Binder	MFI fold change over cells incubated in media only, NCI-H929, overnight with 67 nM antibody [1] [fold]	MFI fold change over cells incubated in media only, NCI-H929, overnight with 667 nM antibody [1] [fold]	MFI fold change over cells incubated in media only, Molp8, overnight with 67 nM antibody [2] [fold]	MFI fold change over cells incubated in media only, Molp8, overnight with 667 nM antibody [2] [fold]	MFI fold change over cells incubated in media only, U266, overnight with 67 nM antibody [3] [fold]	90 nM hBCMA.mmh Bind (RU) [4] [RU]	Kd [4] [nM]	koff [4] [s⁻¹]	kon [4] [M⁻¹ s⁻¹]	t1/2 [4] [min]	30 nM hBCMA.mFc Bind (RU) [5] [RU]	Kd [5] [nM]	koff [5] [s⁻¹]	kon [5] [M⁻¹ s⁻¹]	t1/2 [5] [min]	30 nM mBCMA.mFc Bind (RU) [7] [RU]	Kd [7] [nM]	koff [7] [s⁻¹]	kon [7] [M⁻¹ s⁻¹]	t1/2 [7] [min]	further results
B1	1.8	2.1	2.2	0.6	1.5	31.4	2.84	0.00247	869000	4.7	146	0.0633	8.95e-05	1.41e+06	129	108	4.42	0.00418	947000	2.8	MFI fold change over cells incubated in media only, U266, overnight with 667 nM antibody [3]: 1.7 fold; 30 nM mfBCMA.mFc Bind (RU) [6]: 101 RU; Kd [6]: 3.37 nM; koff [6]: 0.00716 s⁻¹; kon [6]: 2.13e+06 M⁻¹ s⁻¹; t1/2 [6]: 1.6 min
B2						25.3	2.69	0.00285	1.06e+06	4.1	124	0.0422	4.53e-05	1.07e+06	255	110	0.677	0.000269	397000	43	30 nM mfBCMA.mFc Bind (RU) [6]: 40.3 RU; Kd [6]: 14.7 nM; koff [6]: 0.00724 s⁻¹; kon [6]: 492000 M⁻¹ s⁻¹; t1/2 [6]: 1.6 min
B3	1.2	1.4	2.3	3.7	1.8																MFI fold change over cells incubated in media only, U266, overnight with 667 nM antibody [3]: 2.3 fold; MFI fold change over cells incubated in media only, MM1S, overnight with 67 nM antibody [8]: 7.3 fold; MFI fold change over cells incubated in media only, MM1S, overnight with 667 nM antibody [8]: 7 fold
B4	2.8	2.1	3.5	3	2.2	22.2	1.73	0.00347	2.01e+06	3.3	114	0.103	0.00019	1.85e+06	60.8	90	1.02	0.0011	1.07e+06	10.5	MFI fold change over cells incubated in media only, U266, overnight with 667 nM antibody [3]: 2.2 fold; 90 nM mfBCMA.mmh Bind (RU) [9]: -0.5 RU; 30 nM mfBCMA.mFc Bind (RU) [6]: 0.9 RU; binding result [6]: no binding (tested: 30 nM)
B5						26.4	3.56	0.00299	841000	3.9	120	0.0968	8.35e-05	862000	138	33.4	18.8	0.00385	205000	3	90 nM mfBCMA.mmh Bind (RU) [9]: 0.8 RU; binding result [9]: no binding (tested: 90 nM)
